Results published in patent US20210388081A1 (Memorial Sloan Kettering, published 2021).
Residue numbers refer to the chain shown, from its start.

T1: FcRL2, overexpressed on 3T3 cells (UniProt Q96LA5 20-508, limits assumed)
T1 construct: whole, on cells
T1 sequence (looked up): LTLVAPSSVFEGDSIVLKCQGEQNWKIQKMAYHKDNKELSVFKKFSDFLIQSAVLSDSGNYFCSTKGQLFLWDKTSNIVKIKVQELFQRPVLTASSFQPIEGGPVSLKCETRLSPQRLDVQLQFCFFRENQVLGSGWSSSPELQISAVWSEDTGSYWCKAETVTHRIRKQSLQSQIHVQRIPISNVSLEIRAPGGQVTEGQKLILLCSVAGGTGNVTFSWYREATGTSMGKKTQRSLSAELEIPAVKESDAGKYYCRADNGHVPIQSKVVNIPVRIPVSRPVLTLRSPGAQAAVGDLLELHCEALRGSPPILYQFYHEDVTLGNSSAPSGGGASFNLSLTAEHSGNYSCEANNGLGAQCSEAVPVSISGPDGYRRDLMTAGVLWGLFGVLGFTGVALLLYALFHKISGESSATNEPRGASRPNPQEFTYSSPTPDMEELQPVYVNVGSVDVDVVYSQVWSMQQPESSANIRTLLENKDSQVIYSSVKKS

T2: Fc Receptor-like 5 (FcRL5), full length, overexpressed on 3T3 or Raji cells (human, UniProt Q96RD9 16-977)
T2 construct: also called 3T3-FcRL5
T2 sequence: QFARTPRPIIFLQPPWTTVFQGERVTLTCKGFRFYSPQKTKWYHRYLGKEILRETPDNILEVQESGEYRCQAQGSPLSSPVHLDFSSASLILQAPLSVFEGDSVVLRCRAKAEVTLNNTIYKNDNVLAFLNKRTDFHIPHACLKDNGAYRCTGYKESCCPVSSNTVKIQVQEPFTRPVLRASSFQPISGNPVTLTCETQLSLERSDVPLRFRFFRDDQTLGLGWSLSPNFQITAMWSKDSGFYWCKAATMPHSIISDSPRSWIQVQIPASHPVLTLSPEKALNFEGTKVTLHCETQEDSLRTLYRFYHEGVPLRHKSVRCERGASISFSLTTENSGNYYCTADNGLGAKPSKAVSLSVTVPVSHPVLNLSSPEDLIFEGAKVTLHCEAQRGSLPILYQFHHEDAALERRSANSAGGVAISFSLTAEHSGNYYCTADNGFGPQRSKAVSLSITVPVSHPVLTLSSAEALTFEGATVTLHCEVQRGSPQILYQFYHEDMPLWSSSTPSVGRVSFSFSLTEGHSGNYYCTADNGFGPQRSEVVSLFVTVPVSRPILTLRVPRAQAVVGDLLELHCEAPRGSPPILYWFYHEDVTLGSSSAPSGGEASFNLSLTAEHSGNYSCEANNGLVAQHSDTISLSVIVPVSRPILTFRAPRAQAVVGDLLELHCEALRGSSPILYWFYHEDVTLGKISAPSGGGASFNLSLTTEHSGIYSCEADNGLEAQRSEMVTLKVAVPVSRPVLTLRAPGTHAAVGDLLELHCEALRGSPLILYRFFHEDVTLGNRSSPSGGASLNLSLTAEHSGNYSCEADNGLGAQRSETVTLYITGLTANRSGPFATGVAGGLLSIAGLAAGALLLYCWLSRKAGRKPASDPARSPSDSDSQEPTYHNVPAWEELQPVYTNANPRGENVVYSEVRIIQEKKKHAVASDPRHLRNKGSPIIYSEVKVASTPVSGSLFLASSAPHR

T3: FcRL1, overexpressed on 3T3 cells (UniProt Q96LA6 17-429, limits assumed)
T3 construct: whole, on cells
T3 sequence (looked up): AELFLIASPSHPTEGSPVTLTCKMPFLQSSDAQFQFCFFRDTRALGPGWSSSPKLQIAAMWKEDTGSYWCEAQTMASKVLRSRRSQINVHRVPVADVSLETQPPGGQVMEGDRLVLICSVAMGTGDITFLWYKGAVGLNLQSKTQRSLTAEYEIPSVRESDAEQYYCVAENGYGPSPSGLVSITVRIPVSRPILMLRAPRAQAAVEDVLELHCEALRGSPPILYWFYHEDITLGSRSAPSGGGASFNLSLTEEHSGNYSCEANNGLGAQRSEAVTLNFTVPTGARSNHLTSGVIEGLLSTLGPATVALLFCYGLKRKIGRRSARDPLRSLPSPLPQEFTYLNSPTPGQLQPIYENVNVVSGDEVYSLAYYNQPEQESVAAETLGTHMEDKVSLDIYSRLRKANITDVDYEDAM

T4: FcRL3, overexpressed on 3T3 cells (UniProt Q96P31 18-734, limits assumed)
T4 construct: whole, on cells
T4 sequence (looked up): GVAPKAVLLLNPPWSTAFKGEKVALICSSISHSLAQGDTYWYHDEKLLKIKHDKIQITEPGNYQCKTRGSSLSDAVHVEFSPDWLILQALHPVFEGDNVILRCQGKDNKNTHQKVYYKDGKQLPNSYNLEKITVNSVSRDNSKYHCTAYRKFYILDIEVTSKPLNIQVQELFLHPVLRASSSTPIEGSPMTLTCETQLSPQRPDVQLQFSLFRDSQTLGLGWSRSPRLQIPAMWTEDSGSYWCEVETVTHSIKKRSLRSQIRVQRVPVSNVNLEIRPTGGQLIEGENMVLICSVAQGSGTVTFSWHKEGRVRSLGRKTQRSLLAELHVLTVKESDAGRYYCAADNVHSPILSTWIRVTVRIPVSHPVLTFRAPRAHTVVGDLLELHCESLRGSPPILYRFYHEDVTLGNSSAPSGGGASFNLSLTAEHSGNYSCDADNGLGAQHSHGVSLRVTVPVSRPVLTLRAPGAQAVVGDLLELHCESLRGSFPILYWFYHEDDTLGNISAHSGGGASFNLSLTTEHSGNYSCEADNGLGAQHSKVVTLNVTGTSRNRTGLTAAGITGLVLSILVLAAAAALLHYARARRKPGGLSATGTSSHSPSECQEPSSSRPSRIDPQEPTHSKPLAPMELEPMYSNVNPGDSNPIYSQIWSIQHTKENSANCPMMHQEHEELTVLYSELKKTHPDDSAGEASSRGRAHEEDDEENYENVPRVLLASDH

B1: ET200-020 (scFv)
scFv: QSVVTQPPSVSAAPGQKVTISCSGSTSNIGNNDVSWYQQLPGTAPKLLIYDNNKRPSGIPDRFSGSKSGTSATLGITGLQTGDEADYYCGTWDSSVSASWVFGRGTKLTVLGSRGGGGSGGGGSGGGGSLEMAQVQLVQSGAEVKKPGASVKVSCKASGYTFTSYGISWVRQAPGQGLEWMGWISAYNGNTNYPQKLQGRVTMTTDPSTSTAYMELRSLRSDDTAVYYCARSMTSFDYWGQGTLVTVSSTSGQAGQHHHHHHGAYPYDVPDYAS
notes: screened as phage clone; entry is VL-linker-VH-His tag-HA tag
B2: ET200-039 (scFv)
scFv: NFMLTQPHSVSESPGKTVTISCTRSSGSIASNYVQWYQQRPGSSPTTVIYEDNQRPSGVPDRFSGSIDSSSNSASLTISGLKTEDEADYYCQSYDSSNWVFGGGTKLTVLGSRGGGGSGGGGSGGGGSLEMAEVQLVQSGAEVKKPGSSVKVSCKASGGTFSSYAISWVRQAPGQGLEWMGGIIPIFGTANYAQKFQGRVTITADESTSTAYMELSSLRSEDTAVYYCARSNYYYNDYWGQGTLVTVSSTSGQAGQHHHHHHGAYPYDVPDYAS
notes: screened as phage clone; entry is VL-linker-VH-His tag-HA tag; also called ET200-39
B3: ET200-035 (scFv)
scFv: B2 scFv with S44A, S97T, E133Q, S231Y, Y235F
notes: as for B1
B4: ET200-026 (scFv)
scFv: B2 scFv with R24G, S44A, S231N, Y233H
notes: as for B1
B5: ET200-022 (scFv)
scFv: QSVVTQPPSVSAAPGQKVTISCSGSSSNIGNNYVSWYQQLPGTAPKLLIYDNNKRPSGIPDRFSGSKSGTSATLGITGLQTGDEADYYCGTWDSSLGAPYVFGTGTKVTVLGSRGGGGSGGGGSGGGGSLEMAEVQLVQSWGGSEQPGRSLRLSCAASGFTFDDYAMHWVRQAPGKGLEWVSGISWNSGSIGYADSVKGRFTISRDNAKNSLYLQMNSLRAEDTAMYYCARYRQVGSAYDSWGQGTLVTVSSTSGQAGQHHHHHHGAYPYDVPDYAS
notes: as for B1
B6: ET200-023 (scFv)
scFv: LPVLTQPPSVSVAPGKTARITCGGNNIGSKSVHWYQQKPGQAPVLVVYADSDRPSGIPERFSGSNSGNTATLTISRVEAGDEADYYCQVWDSSSYHNYVFGTGTKVTVLGSRGGGGSGGGGSGGGGSLEMAEVQLVQSGAEVKKPGASVKVSCKASGYTFTSYGISWVRQAPGQGLEWMGWISAYNGNTNYAQKLQGRVTMTTDTSTSTAYMELSSLRSEDTAMYYCARYWGFGVSDRWGQGTLVTVSSTSGQAGQHHHHHHGAYPYDVPDYAS
notes: as for B1
B7: ET200-027 (scFv)
scFv: QSVLTQPPSVSGAPGQGVTIPCTGSSSNIGAGYDVHWYQQLPGTAPKLLIYGNNNRPSGVPDRFSGSRSGSSASLAITGLQAEDEADYYCQSYDSSLSDVVFGGGTKVTVLGSRGGGGSGGGGSGGGGSLEMAEVQLVQSGAEVKKPGATVKISCKVSGYTFTDYYMHWVQQAPGKGLEWMGLVDPEDGETIYAEKFQGRVTITADTSTDTAYMELSSLRSEDTAVYYCARYWSYSFDYLYMPEGNDWWGQGTLVTVSSTSGQAGQHHHHHHGAYPYDVPDYAS
notes: as for B1
B8: ET200-021 (scFv)
scFv: QSVLTQPPSVSAAPGQKVTISCSGSNSNIGNNYVSWYQQLPGTAPKLLIYDNNKRPSGIPDRFSGSRSGTSATLGITGLQTGDEADYYCGTWNTTVTPGYVFGTGTKVTVLGSRGGGGSGGGGSGGGGSLEMAEVQLVQSGAEVKKPGASVKVSCKASGYTFTSYGISWVRQAPGQGLEWMGWISAYNGNTNYAQKLQGRVTMTTDTSTSTAYMELRSLRSDDTAMYYCARSVYDLDTWGQGTLVTVSSTSGQAGQHHHHHHGAYPYDVPDYAS
notes: as for B1
B9: ET200-019 (scFv)
scFv: NFMLTQPHSVSESPGKTVTISCTRSSGSIASNYVQWYQQRPGSAPTTVIYEDNQRPSGVPDRFSGSIDSSSNSASLTISGLKTEDEADYYCQSYDSSNSWVFGGGTKLTVLGSRGGGGSGGGGSGGGGSLEMAQVQLVQSGAEVKRPGSSVKVSCTASGGTFSSDAISWVRQAPGQGLEWMGGIIPMFGTANYAQKFQGRVTITADESTSTAYMELSSLRSEDTAVYYCAREGYYYPSAYLGSVLNDISSVYDEWGQGTLVTVSSTSGQAGQHHHHHHGAYPYDVPDYAS
notes: as for B1

Legend:
[1] = target: T1, FcRL2, overexpressed on 3T3 cells; test: phage clone on 3T3-FcRL2 cells
[2] = target: T2, Fc Receptor-like 5 (FcRL5), full …; test: phage clone screening on cells
Method: Once selected, positive scFv clones are further tested for their binding to FcRL5 (e.g., human FcRL5) on live 3T3 cell surfaces by flow cytometry. Briefly, phage clones are incubated with 3T3 cells over-expressing FcRL5. The cells are washed and then incubated with a mouse anti-M13 coat protein mAb. Cells are washed again and labeled with a PE-horse anti-mouse Ig prior to flow cytometry.
Phage′ display against FcRL5 was performed to enrich for scFv phage clones that bind to FcRL5 specifically. Screening was carried out on FcRL5 overexpressing 3T3 cells or 3T3 cells expressing FcRL1, 2, 3, 4 or 6 as a negative control (FIG. 2).

[3] = target: T3, FcRL1, overexpressed on 3T3 cells; test: phage clone on 3T3-FcRL1 cells
[4] = target: T4, FcRL3, overexpressed on 3T3 cells; test: phage clone on 3T3-FcRL3 cells

Binder | binding result [1] | binding result [2] | binding result [3] | binding result [4]
B1 | no binding | binds | no binding | no binding
B2 | no binding | binds | no binding | no binding
B3 | no binding | binds | no binding | no binding
B4 | no binding | binds | no binding | no binding
B5 | no binding | binds | no binding | no binding
B6 | no binding | binds | no binding | no binding
B7 | no binding | binds | no binding | no binding
B8 | no binding | binds | no binding | no binding
B9 | no binding | binds | no binding | no binding
